Measurements as given in paper PMC8948829, “The Escherichia coli Amino Acid Uptake Protein CycA: Regulation of Its Synthesis and Practical Application in l-Isoleucine Production”.

Target: Crp (CRP, cAMP receptor protein) (Escherichia coli (purified from strain …, UniProt P0ACJ8 1-210))
Assay: EMSA; 20 uM cAMP; 12 ng Crp, 50 ng probe; 10 mM Tris-HCl pH 7.5, 1 mM EDTA, 100 mM KCl, 1 mM DTT, BSA (printed 10 g/mL), 5% glycerol, 20 uM cAMP, room temperature 30 min; 6% native PAGE, 1x TAE, 4 C
Conditions: protein: recombinant; tags: none (native His residues used for Ni-NTA); chain copies: 2; label: 5'-TAMRA on strand 2 (primer P11); blunt

Crp (CRP, cAMP receptor protein) (Escherichia coli, sequence (P0ACJ8 whole entry): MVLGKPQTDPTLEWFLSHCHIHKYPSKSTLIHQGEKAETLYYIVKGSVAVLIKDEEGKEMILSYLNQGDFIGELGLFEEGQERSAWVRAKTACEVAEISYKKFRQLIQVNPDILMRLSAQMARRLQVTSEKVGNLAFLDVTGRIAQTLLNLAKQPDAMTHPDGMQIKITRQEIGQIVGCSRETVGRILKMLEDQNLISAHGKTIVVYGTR

B1: PcycA fragment 2 (73 bp) (dsDNA)
DNA 1: CAAAGACCCCGTAAGCGTGTATTTTTGTGAGCTGTTTCGCGTTATCACCGTGATATGACACTCACTTTAAACA
DNA 2: TGTTTAAAGTGAGTGTCATATCACGGTGATAACGCGAAACAGCTCACAAAAATACACGCTTACGGGGTCTTTG
- binding result: binds
